Assay results reported in patent publication EP4477665A1 (AffyXell Therapeutics Co., Ltd., dated 2024).

T1: hCD40L expressed on hCD40L-HEK-293 cells (Crown Biosciences, C2041) (human, UniProt P29965 1-261)
T1 construct: whole, on cells; also called huCD40L HEK293
T1 sequence (looked up): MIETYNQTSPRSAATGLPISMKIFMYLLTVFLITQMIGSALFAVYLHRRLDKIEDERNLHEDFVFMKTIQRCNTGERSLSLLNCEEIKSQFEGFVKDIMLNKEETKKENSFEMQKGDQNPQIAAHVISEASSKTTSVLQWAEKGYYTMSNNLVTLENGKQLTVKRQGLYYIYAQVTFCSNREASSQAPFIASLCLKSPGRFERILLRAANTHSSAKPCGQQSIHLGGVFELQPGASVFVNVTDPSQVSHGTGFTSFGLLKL

T2: human CD40L (hCD40L antigen) (human, UniProt P29965 113-261, limits assumed)
T2 sequence (looked up): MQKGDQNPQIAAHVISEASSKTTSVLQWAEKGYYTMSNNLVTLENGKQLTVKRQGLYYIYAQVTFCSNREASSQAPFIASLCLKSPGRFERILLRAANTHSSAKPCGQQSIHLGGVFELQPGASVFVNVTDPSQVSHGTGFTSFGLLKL


Columns and labels:
[1] = molecular target: T3, human serum albumin (human, UniProt P02768 25-609); assay: bridging ELISA: capture on coated hCD40L, 10 uM HSA, anti-HSA detection
T3 construct: also called HSA
T3 sequence (P02768 25-609): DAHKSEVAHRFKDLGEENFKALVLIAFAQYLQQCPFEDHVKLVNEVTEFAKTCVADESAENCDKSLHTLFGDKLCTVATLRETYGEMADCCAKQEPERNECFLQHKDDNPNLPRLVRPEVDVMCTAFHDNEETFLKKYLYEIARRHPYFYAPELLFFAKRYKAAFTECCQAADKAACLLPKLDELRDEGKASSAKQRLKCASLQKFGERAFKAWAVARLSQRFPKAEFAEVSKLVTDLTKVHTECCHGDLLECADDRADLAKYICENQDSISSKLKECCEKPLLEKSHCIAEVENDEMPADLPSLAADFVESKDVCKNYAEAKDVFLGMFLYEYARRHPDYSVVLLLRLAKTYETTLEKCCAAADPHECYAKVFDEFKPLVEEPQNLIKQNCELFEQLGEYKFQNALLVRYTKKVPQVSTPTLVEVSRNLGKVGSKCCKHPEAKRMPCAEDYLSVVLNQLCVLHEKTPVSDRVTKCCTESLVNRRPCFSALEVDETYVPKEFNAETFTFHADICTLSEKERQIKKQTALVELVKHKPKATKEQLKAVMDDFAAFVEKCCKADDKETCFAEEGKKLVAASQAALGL

[2] = molecular target: T1, hCD40L expressed on hCD40L-HEK-293 …; assay: flow cytometry on hCD40L-HEK293 cells, doses 0.7 to 500 nM
[3] = molecular target: T2, human CD40L (hCD40L antigen); assay: cell-based or functional assay

binding result [1]	Binder	other results
binds	clone-230 XT76 (designed binder) IPGGLSEAKPATPEIQEIVDKVKPQLEEKTGETYGKLEAVQYKTQVVHYYVHYNDQGTNYYIKVRAGDNKYMHLKVFKSLWGENLFAKWEDLVLTGYQVDKNKDDELTGFAEAAAKEAAAKEAAAKEAAAKEAAAKEAAAKMIPGGLSEAKPATPEIQEIVDKVKPQLEEKTGETYGKLEAVQYKTQVVHYYVHYNDQGTNYYIKVRAGDNKYMHLKVFKSLWGENLFAKWEDLVLTGYQVDKNKDDELTGFAEAAAKEAAAKEAAAKEAAAKEAAAKEAAAKMIPGGLSEAKPATPEIQEIVDKVKPQLEEKTGETYGKLEAVQYKTQVVHYYVHYNDQGTNYYIKVRAGDNKYMHLKVFKSLWGENLFAKWEDLVLTGYQVDKNKDDELTGFAEAAAKEAAAKEAAAKEAAAKEAAAKEAAAKMIPGGLSEAKPATPEIQEIVDKVKPQLEEKTGETYGKLEAVQYKTQVVHYYVHYNDQGTNYYIKVRAGDNKYMHLKVFKSLWGENLFAKWEDLVLTGYQVDKNKDDELTGFAEAAAKEAAAKEAAAKEAAAKEAAAKEAAAKMIPRGLSEAKPATPEIQEIVDKVKPQLEEKTGETYGKLEAVQYKTQVLANFFQRRWPGSTNYYIKVRAGDNKYMHLKVFNGPWKFRNTDRGADRVLTGYQVDKNKDDELTGF	
	clone 230 (designed binder) MIPGGLSEAKPATPEIQEIVDKVKPQLEEKTGETYGKLEAVQYKTQVVHYYVHYNDQGTNYYIKVRAGDNKYMHLKVFKSLWGENLFAKWEDLVLTGYQVDKNKDDELTGF	binding result [2]: binds
binds	clone-230 XT75 (designed binder) IPGGLSEAKPATPEIQEIVDKVKPQLEEKTGETYGKLEAVQYKTQVVHYYVHYNDQGTNYYIKVRAGDNKYMHLKVFKSLWGENLFAKWEDLVLTGYQVDKNKDDELTGFAEAAAKEAAAKEAAAKEAAAKEAAAKEAAAKMIPGGLSEAKPATPEIQEIVDKVKPQLEEKTGETYGKLEAVQYKTQVVHYYVHYNDQGTNYYIKVRAGDNKYMHLKVFKSLWGENLFAKWEDLVLTGYQVDKNKDDELTGFAEAAAKEAAAKEAAAKEAAAKEAAAKEAAAKMIPGGLSEAKPATPEIQEIVDKVKPQLEEKTGETYGKLEAVQYKTQVVHYYVHYNDQGTNYYIKVRAGDNKYMHLKVFKSLWGENLFAKWEDLVLTGYQVDKNKDDELTGFAEAAAKEAAAKEAAAKEAAAKEAAAKEAAAKMIPRGLSEAKPATPEIQEIVDKVKPQLEEKTGETYGKLEAVQYKTQVLANFFQRRWPGSTNYYIKVRAGDNKYMHLKVFNGPWKFRNTDRGADRVLTGYQVDKNKDDELTGF	
	clone 230 DJ (designed binder) IPGGLSEAKPATPEIQEIVDKVKPQLEEKTGETYGKLEAVQYKTQVVHYYVHYNDQGTNYYIKVRAGDNKYMHLKVFKSLWGENLFAKWEDLVLTGYQVDKNKDDELTGFGGGGSGGGGSGGGGSGGGGSGGGGSGGGGSMIPGGLSEAKPATPEIQEIVDKVKPQLEEKTGETYGKLEAVQYKTQVVHYYVHYNDQGTNYYIKVRAGDNKYMHLKVFKSLWGENLFAKWEDLVLTGYQVDKNKDDELTGFGGGGSGGGGSGGGGSGGGGSGGGGSGGGGSMIPGGLSEAKPATPEIQEIVDKVKPQLEEKTGETYGKLEAVQYKTQVVHYYVHYNDQGTNYYIKVRAGDNKYMHLKVFKSLWGENLFAKWEDLVLTGYQVDKNKDDELTGF	EC50, HEK-Blue cell-based assay [3]: 5.99 nM
